Experimental data: publication PMC12329532 (2025)

Key:
Experiment in all cases: FP
[1] = target: His6-IDO1 K101A, purified (human, UniProt P14902 1-403, K101A, Alexa Fluor 488 on Cys groups)
[2] = target: His6-IDO1 K101D, purified (human, UniProt P14902 1-403, K101D, Alexa Fluor 488 on Cys groups)
[3] = target: N-terminally His6-tagged human IDO1 (indoleamine 2,3-dioxygenase 1), purified apo-IDO1 (human, UniProt P14902 1-403, Alexa Fluor 488 on Cys groups (in the fluorescence polarisation assay only))
Sequence of N-terminally His6-tagged human IDO1 (indoleamine 2,3-dioxygenase 1), purified apo-IDO1 (P14902 whole entry): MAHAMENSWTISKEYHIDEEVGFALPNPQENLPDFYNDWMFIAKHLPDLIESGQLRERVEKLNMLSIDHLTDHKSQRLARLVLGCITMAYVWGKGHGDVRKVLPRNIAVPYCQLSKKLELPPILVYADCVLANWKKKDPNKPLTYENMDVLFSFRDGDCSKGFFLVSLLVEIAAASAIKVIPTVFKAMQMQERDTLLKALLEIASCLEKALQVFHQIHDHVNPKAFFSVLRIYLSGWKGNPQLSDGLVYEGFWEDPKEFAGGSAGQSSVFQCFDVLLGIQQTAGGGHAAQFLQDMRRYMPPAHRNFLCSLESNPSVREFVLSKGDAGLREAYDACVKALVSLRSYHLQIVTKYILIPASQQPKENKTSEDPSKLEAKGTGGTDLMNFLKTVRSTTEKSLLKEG

Kd [1]: 4.66 µM | Kd [2]: 4.45 µM | Kd [3]: 1.79 µM
B1: human recombinant TC-GAPDH (GAPDH with a tetra-Cys insertion sequence near its heme binding site), wild type, purified (enzyme)
chain: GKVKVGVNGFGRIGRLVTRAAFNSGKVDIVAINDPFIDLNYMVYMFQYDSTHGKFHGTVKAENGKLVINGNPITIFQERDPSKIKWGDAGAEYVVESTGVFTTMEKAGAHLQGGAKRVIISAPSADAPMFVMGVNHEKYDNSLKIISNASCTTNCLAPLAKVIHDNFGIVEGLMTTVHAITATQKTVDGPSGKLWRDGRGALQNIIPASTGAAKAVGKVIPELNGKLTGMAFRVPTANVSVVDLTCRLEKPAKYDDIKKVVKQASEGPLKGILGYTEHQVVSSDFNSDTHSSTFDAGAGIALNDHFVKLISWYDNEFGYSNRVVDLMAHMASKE
